In patent publication US20130115220A1, “METHOD FOR PREVENTION OR TREATMENT OF METABOLIC SYNDROME” (DAINIPPON SUMITOMO PHARMA CO., LTD., priority 2010, published 2013):

Biological target: FAS (Mus musculus, UniProt P19096)
Assay: Co-immunoprecipitation of rAIM-HA and endogenous FAS in adipose tissue
Type: binding
Set-up: endogenous
Settings: adipose tissue of AIM-/- mice, 100 μg injected, 3 hr
Method: rAIM labeled with HA-tag was directly injected to adipose tissue of AIM^−/− mice (at several points, 100 μg in total). After 3 hr, to confirm binding of rAIM-HA and endogenous FAS, co-immunoprecipitation by anti-HA antibody was performed using adipose tissue. The presence of FAS in the precipitate was analyzed by Western blotting (WB).

Sequence of FAS (P19096 whole entry): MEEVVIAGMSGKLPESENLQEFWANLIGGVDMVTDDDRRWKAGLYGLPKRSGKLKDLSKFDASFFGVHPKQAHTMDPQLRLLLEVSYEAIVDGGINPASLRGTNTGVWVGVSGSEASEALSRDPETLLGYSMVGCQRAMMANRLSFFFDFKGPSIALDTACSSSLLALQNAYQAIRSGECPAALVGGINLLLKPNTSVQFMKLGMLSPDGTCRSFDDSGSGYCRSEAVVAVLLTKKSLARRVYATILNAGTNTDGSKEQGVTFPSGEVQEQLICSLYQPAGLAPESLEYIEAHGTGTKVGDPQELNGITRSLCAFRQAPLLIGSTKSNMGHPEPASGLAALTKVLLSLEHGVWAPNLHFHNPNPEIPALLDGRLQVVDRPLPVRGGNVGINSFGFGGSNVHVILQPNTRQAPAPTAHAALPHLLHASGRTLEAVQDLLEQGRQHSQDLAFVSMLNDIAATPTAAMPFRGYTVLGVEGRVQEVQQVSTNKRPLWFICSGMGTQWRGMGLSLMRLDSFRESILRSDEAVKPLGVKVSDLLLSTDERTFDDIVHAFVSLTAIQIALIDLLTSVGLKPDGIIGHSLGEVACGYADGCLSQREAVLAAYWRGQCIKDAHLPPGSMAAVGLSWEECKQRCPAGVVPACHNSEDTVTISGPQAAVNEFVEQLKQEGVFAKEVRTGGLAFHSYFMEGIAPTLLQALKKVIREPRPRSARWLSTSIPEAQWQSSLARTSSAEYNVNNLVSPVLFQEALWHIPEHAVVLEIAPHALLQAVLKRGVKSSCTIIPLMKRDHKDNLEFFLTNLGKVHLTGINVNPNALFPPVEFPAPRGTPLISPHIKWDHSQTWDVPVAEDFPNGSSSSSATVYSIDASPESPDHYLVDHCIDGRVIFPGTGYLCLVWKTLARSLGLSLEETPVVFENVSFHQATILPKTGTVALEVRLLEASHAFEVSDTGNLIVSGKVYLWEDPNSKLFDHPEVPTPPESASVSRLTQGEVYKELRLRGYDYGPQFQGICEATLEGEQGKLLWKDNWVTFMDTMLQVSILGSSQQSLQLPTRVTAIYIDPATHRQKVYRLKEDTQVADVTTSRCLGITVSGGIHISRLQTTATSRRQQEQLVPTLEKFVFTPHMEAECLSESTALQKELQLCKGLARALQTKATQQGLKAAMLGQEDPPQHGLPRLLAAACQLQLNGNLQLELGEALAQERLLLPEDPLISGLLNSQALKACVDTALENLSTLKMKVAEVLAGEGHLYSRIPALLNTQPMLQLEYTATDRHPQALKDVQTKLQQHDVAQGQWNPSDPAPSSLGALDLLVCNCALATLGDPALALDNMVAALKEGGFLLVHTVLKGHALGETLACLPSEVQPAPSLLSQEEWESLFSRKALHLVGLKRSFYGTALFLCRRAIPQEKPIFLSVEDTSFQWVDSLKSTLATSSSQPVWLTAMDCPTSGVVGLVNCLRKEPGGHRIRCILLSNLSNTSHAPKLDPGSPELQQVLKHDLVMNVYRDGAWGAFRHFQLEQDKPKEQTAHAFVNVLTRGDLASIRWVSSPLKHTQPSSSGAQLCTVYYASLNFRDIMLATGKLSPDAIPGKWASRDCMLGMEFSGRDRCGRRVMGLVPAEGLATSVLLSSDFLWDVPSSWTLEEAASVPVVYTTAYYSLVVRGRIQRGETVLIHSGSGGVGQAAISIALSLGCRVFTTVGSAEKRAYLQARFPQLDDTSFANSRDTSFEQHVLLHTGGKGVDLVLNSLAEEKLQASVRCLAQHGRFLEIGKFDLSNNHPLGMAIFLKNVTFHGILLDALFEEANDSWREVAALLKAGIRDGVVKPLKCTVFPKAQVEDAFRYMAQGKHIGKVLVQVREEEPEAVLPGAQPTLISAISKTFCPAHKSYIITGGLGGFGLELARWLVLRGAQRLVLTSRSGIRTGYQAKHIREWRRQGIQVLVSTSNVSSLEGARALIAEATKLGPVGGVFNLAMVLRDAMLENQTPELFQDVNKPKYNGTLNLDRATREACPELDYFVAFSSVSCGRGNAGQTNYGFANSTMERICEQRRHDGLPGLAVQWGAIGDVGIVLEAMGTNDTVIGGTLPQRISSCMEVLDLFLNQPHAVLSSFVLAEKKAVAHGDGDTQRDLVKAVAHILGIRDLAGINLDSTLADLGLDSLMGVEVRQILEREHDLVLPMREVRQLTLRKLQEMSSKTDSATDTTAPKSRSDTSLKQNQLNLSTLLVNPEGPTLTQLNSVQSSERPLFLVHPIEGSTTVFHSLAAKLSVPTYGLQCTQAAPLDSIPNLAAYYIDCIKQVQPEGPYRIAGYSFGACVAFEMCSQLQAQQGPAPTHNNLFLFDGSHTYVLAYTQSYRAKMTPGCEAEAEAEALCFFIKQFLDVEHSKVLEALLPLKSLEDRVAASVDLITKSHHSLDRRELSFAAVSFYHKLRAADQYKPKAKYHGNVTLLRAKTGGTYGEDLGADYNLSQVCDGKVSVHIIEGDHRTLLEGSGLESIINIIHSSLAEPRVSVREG

B1: rAIM: recombinant AIM protein (rAIM) of mouse, HA-tagged, prepared in HEK293T cells (protein)
chain: ESPTKVQLVGGAHRCEGRVEVEHNGQWGTVCDDGWDRRDVAVVCRELNCGAVIQTPRGASYQPPASEQRVLIQGVDCNGTEDTLAQCELNYYVFDCSHEEDAGAQCENPDSDLLFIPEDVRLVDGPGHCQGRVEVLHQSQWSTVCKAGWNLQVSKVVCRQLGCGRALLTYGSCNKNTQGKGPIWMGKMSCSGQEANLRSCLLSRLENNCTHGEDTWMECEDPFELKLVGGDTPCSGRLEVLHKGSWGSVCDDNWGEKEDQVVCKQLGCGKSLHPSPKTRKIYGPGAGRIWLDDVNCSGKEQSLEFCRHRLWGYHDCTHKEDVEVICTDFDV
modifications: left off: small tags and cut ends
notes: recombinant AIM protein (rAIM) of mouse, HA-tagged, prepared in HEK293T cells
- binding of rAIM-HA and endogenous FAS (co-immunoprecipitation, Western blotting): coprecipitated
